Results as given in patent publication US11471462B2, “Compositions and methods for detecting and treating diabetes” (THE BROAD INSTITUTE, INC., priority 2016, dated 2022).

B1: HSDI7B12 (protein, UniProt Q53GQ0 1-312, looked up)
Very-long-chain 3-oxoacyl-CoA …: MESALPAAGFLYWVGAGTVAYLALRISYSLFTALRVWGVGNEAGVGPGLGEWAVVTGSTDGIGKSYAEELAKHGMKVVLISRSKDKLDQVSSEIKEKFKVETRTIAVDFASEDIYDKIKTGLAGLEIGILVNNVGMSYEYPEYFLDVPDLDNVIKKMININILSVCKMTQLVLPGMVERSKGAILNISSGSGMLPVPLLTIYSATKTFVDFFSQCLHEEYRSKGVFVQSVLPYFVATKLAKIRKPTLDKPSPETFVKSAIKTVGLQSRTNGYLIHALMGSIISNLPSWIYLKIVMNMNKSTRAHYLKKTKKN
B2: HSD17B12 (protein)
chain: B1 Very-long-chain 3-oxoacyl-CoA …
B3: SURF4 (protein)
chain: GQNDLMGTAEDFADQFLRVTKQYLPHVARLCLISTFLEDGIRMWFQWSEQRDYIDTTWNCGYLLASSFVFLNLLGQLTGCVLVLSRNFVQYACFGLFGIIALQTIAYSILWDLKFLMRNLALGGGLLLLLAESRSEGKSMFAGVPTMRESSPKQYMQLGGRVLLVLMFMTLLHFDASFFSIVQNIVGTALMILVAIGFKTKLAALTLVVWLFAINVYFNAFWTIPVYKPMHDFLKYDFFQTMSVIGGLLLVVALGPGGVSMDEKKKEW
B4: TMEM33 (protein)
chain: ADTTPNGPQGAGAVQFMMTNKLDTAMWLSRLFTVYCSALFVLPLLGLHEAASFYQRALLANALTSALRLHQRLPHFQLSRAFLAQALLEDSCHYLLYSLIFVNSYPVTMSIFPVLLFSLLHAATYTKKVLDARGSNSLPLLRSVLDKLSANQQNILKFIACNEIFLMPATVFMLFSGQGSLLQPFIYYRFLTLRYSSRRNPYCRTLFNELRIVVEHIIMKPACPLFVRRLCLQSIAFISRLAPTVP
B5: SLC16A11 (protein, UniProt Q8NCK7 1-471, looked up)
Monocarboxylate transporter 11: MPAPQRKHRRGGFSHRCFPTPQTAMTPQPAGPPDGGWGWVVAAAAFAINGLSYGLLRSLGLAFPDLAEHFDRSAQDTAWISALALAVQQAASPVGSALSTRWGARPVVMVGGVLASLGFVFSAFASDLLHLYLGLGLLAGFGWALVFAPALGTLSRYFSRRRVLAVGLALTGNGASSLLLAPALQLLLDTFGWRGALLLLGAITLHLTPCGALLLPLVLPGDPPAPPRSPLAALGLSLFTRRAFSIFALGTALVGGGYFVPYVHLAPHALDRGLGGYGAALVVAVAAMGDAGARLVCGWLADQGWVPLPRLLAVFGALTGLGLWVVGLVPVVGGEESWGGPLLAAAVAYGLSAGSYAPLVFGVLPGLVGVGGVVQATGLVMMLMSLGGLLGPPLSGFLRDETGDFTASFLLSGSLILSGSFIYIGLPRALPSCGPASPPATPPPETGELLPAPQAVLLSPGGPGSTLDTTC
B6: DDOST (protein)
chain: SGPRTLVLLDNLNVRETHSLFFRSLKDRGFELTFKTADDPSLSLIKYGEFLYDNLIIFSPSVEDFGGNINVETISAFIDGGGSVLVAASSDIGDPLRELGSECGIEFDEEKTAVIDHHNYDISDLGQHTLIVADTENLLKAPTIVGKSSLNPILFRGVGMVADPDNPLVLDILTGSSTSYSFFPDKPITQYPHAVGKNTLLIAGLQARNNARVIFSGSLDFFSDSFFNSAVQKAAPGSQRYSQTGNYELAVALSRWVFKEEGVLRVGPVSHHRVGETAPPNAYTVTDLVEYSIVIQQLSNGKWVPFDGDDIQLEFVRIDPFVRTFLKKKGGKYSVQFKLPDVYGVFQFKVDYNRLGYTHLYSSTQVSVRPLQHTQYERFIPSAYPYYASAFSMMLGLFIFSIVFLHMKEKEKSD
B7: SACM1L (protein)
chain: MATAAYEQLKLHITPEKFYVEACDDGADDVLTIDRVSTEVTLAVKKDVPPSAVTRPIFGILGTIHLVAGNYLIVITKKIKVGEFFSHVVWKATDFDVLSYKKTMLHLTDIQLQDNKTFLAMLNHVLNVDGFYFSTTYDLTHTLQRLSNTSPEFQEMSLLERADQRFVWNGHLLRELSAQPEVHRFALPVLHGFITMHSCSINGKYFDWILISRRSCFRAGVRYYVRGIDSEGHAANFVETEQIVHYNGSKASFVQTRGSIPVFWSQRPNLKYKPLPQISKVANHMDGFQRHFDSQVIIYGKQVIINLINQKGSEKPLEQTFATMVSSLGSGMMRYIAFDFHKECKNMRWDRLSILLDQVAEMQDELSYFLVDSAGQVVANQEGVFRSNCMDCLDRTNVIQSLLARRSLQAQLQRLGVLHVGQKLEEQDEFEKIYKNAWADNANACAKQYAGTGALKTDFTRTGKRTHLGLIMDGWNSMIRYYKNNFSDGFRQDSIDLFLGNYSVDELESHSPLSVPRDWKFLALPIIMVVAFSMCIICLLMAGDTWTETLAYVLFWGVASIGTFFIILYNGKDFVDAPRLVQKEKID
B8: SEC61A2 (protein)
chain: MGIKFLEVIKPFCAVLPEIQKPERKIQFREKVLWTAITLFIFLVCCQIPLFGIMSSDSADPFYWMRVILASNRGTLMELGISPIVTSGLIMQLLAGAKIIEVGDTPKDRALFNGAQKLFGMIITIGQAIVYVMTGMYGDPAEMGAGICLLIIIQLFVAGLIVLLLDELLQKGYGLGSGISLFIATNICETIVWKAFSPTTINTGRGTEFEGAVIALFHLLATRTDKVRALREAFYRQNLPNLMNLIATVFVFAVVIYFQGFRVDLPIKSARYRGQYSSYPIKLFYTSNIPIILQSALVSNLYVISQMLSVRFSGNFLVNLLGQWADVSGGGPARSYPVGGLCYYLSPPESMGAIFEDPVHVVVYIIFMLGSCAFFSKTWIEVSGSSAKDVAKQLKEQQMVMRGHRDTSMVHELNRYIPTAAAFGGLCIGALSVLADFLGAIGSGTGILLAVTIIYQYFEIFVKEQAEVGGMGALFF
B9: BAG2 (protein)
chain: AQAKINAKANEGRFCRSSSMADRSSRLLESLDQLELRVEALREAATAVEQEKEILLEMIHSIQNSQDMRQISDGEREELNLTANRLMGRTLTVEVSVETIRNPQQQESLKHATRIIDEVVNKFLDDLGNAKSHLMSLYSACSSEVPHGPVDQKFQSIVIGCALEDQKKIKRRLETLLRNIENSDKAIKLLEHSKGAGSKTLQQNAESRFN
B10: CANX (protein)
chain: HDGHDDDVIDIEDDLDDVIEEVEDSKPDTTAPPSSPKVTYKAPVPTGEVYFADSFDRGTLSGWILSKAKKDDTDDEIAKYDGKWEVEEMKESKLPGDKGLVLMSRAKHHAISAKLNKPFLFDTKPLIVQYEVNFQNGIECGGAYVKLLSKTPELNLDQFHDKTPYTIMFGPDKCGEDYKLHFIFRHKNPKTGIYEEKHAKRPDADLKTYFTDKKTHLYTLILNPDNSFEILVDQSVVNSGNLLNDMTPPVNPSREIEDPEDRKPEDWDERPKIPDPEAVKPDDWDEDAPAKIPDEEATKPEGWLDDEPEYVPDPDAEKPEDWDEDMDGEWEAPQIANPRCESAPGCGVWQRPVIDNPNYKGKWKPPMIDNPSYQGIWKPRKIPNPDFFEDLEPFRMTPFSAIGLELWSMTSDIFFDNFIICADRRIVDDWANDGWGLKKAADGAAEPGVVGQMIEAAEERPWLWVVYILTVALPVFLVILFCCSGKKQTSGMEYKKTDAPQPDVKEEEEEKEEEKDKGDEEEEGEEKLEEKQKSDAEEDGGTVSQEEEDRKPKAEEDEILNRSPRNRKPRRE

What follows are molecules tested on SLC16A11 (assay: SLC16A11 protein-protein interaction study (immunoprecipitation, quantitative mass spectrometry)). Conditions: enrichment of protein immunoprecipitated from HEK293T cells expressing P2D SLC16A11^REF-V5 vs empty vector control; Blandt-Altman; quantitative mass spectrometry.
Set-up: species or system human
Excerpt: Alternatively, these variants may result in reduced transport because they disrupt protein-protein interactions responsible for correct SLC16A11 function. To explore this possibility, SLC16A11 was immunoprecipitated from HEK293T cells expressing either REF or T2D risk SLC16A11-V5 or empty vector control and quantitative mass spectrometry was used to define the SLC16A11 interactome.
Another mechanism through which the variants could affect activity is through disruption of protein-protein interactions. To explore this possibility, quantitative mass spectrometry-based protein-protein interaction studies were performed to define the SLC16A11 interactome and evaluate if the T2D risk coding variants alter any interactions.
Beads were then washed once with lysis buffer and three times with wash buffer. After the last wash, residual wash buffer was removed, 10 μL fresh wash buffer was added, and beads were stored at −80° C. until analysis by the Proteomics Platform at the Broad Institute, as detailed in the “Proteomics Methods for SLC16A11 Protein Interaction Studies” below.
The beads from immunopurification were washed once with IP lysis buffer, then three times with PBS, the three different lysates of each replicate were resuspended in 90 uL digestion buffer (2M Urea, 50 mM Tris HCl), 2 ug of sequencing grade trypsin added, 1 hour shaking at 700 rpm. The supernatant was removed and placed in a fresh tube. The beads were then washed twice with 50 uL digestion buffer and combined with the supernatant. The combined supernatants were reduced (2 uL 500 mM DTT, 30 minutes, RT), alkylated (4 uL 500 mM IAA, 45 minutes, dark) and a longer overnight digestion performed: 2 ug (4 uL) trypsin, shake o/n, The samples were then quenched with 20 uL 10% FA and desalted on 10 mg SepPak columns.
Desalted peptides were labelled with iTRAQ reagents according to the manufacturer's instructions (AB Sciex, Foster City, Calif.). Peptides were dissolved in 30 μl of 0.5 M TEAB pH 8.5 solution and labeling reagent was added in 70 ul of ethanol. After 1 h incubation the reaction was stopped with 50 mM Tris/HCl pH 7.5. Differentially labelled peptides were mixed and subsequently desalted on 10 mg SepPak columns.
Reconstituted peptides were separated on an online nanoflow EASY-nLC 1000 UHPLC system (Thermo Fisher Scientific) and analyzed on a benchtop Orbitrap Q Exactive Plus mass spectrometer (Thermo Fisher Scientific). The peptide samples were injected onto a capillary column (Picofrit with 10 μm tip opening/75 μm diameter, New Objective, PF360-75-10-N-5) packed in-house with 20 cm C18 silica material (1.9 μm ReproSil-Pur C18-AQ medium, Dr. Maisch GmbH, r119.aq). The UHPLC setup was connected with a custom-fit microadapting tee (360 μm, IDEX Health & Science, UH-753), and capillary columns were heated to 50° C. in column heater sleeves (Phoenix-ST) to reduce backpressure during UHPLC separation. Injected peptides were separated at a flow rate of 200 nL/min with a linear 80 min gradient from 100% solvent A (3% acetonitrile, 0.1% formic acid) to 30% solvent B (90% acetonitrile, 0.1% formic acid), followed by a linear 6 min gradient from 30% solvent B to 90% solvent B. Each sample was run for 120 min, including sample loading and column equilibration times. The Q Exactive instrument was operated in the data-dependent mode acquiring HCD MS/MS scans (R=17,500) after each MS1 scan (R=70,000) on the 12 top most abundant ions using an MS1 ion target of 3×10^6 ions and an MS2 target of 5×10^4 ions. The maximum ion time utilized for the MS/MS scans was 120 ms; the HCD-normalized collision energy was set to 27; the dynamic exclusion time was set to 20 s, and the peptide match and isotope exclusion functions were enabled.
All mass spectra were processed using the Spectrum Mill software package v6.0 pre-release (Agilent Technologies) which includes modules developed by us for iTRAQ-based quantification. […]
B1 was tested, and the “B.A. logFC” value was 1.26.

Same assay, conditions: putative SLC16A11^REF interaction partners; immunoprecipitation from HEK293T cells vs empty vector control; Blandt-Altman
B2 was tested, and the “BA log fold change” value was 1.26. For B3, the “BA log fold change” value was 1.33. With B4 the “BA log fold change” value was 1.25. For B5, the “BA log fold change” value was 1.34. For B6, the “BA log fold change” value was 1.65. B7 was tested, and the “BA log fold change” value was 1.26. In the case of B8, the “BA log fold change” value is reported as 1.59. B9 was tested, and the “BA log fold change” value was 1.26. B10 was tested, and the “BA log fold change” value was 1.38.
